From patent US20180371090A1 come the findings set out here.

In assay [1] the target is human CD3 on Jurkat cells (human) (UniProt P07766). Description: flow cytometry on Jurkat cells, FITC anti-human IgG secondary. A general note: In flow cytometry, cells or beads pass a laser one at a time.
Assay [2] deals with FcγRI and FcγRIIA on U937 cells. In words: flow cytometry on U937 cells (FcγRI and FcγRIIA), FITC goat anti-human Fab secondary, MFI.
The target in assay [3] is His-tagged cynomolgus FcγRIIA (cynomolgus). In words: SPR steady-state, His-captured receptor, 25 C.
The target in assay [4] is His-tagged cynomolgus FcγRIIB (cynomolgus). Description: SPR steady-state, His-captured receptor, 25 C.
Assay [5] concerns the target His-tagged cynomolgus FcγRIIIA (cynomolgus) (UniProt Q8SPW2). Description: SPR steady-state, His-captured receptor, 25 C.
The target of assay [6] is His-tagged human FcγRIIA (H131) (human) (UniProt P12318). Description: SPR steady-state, His-captured receptor, 25 C.
The target in assay [7] is His-tagged human FcγRIIA (R131) (human) (UniProt P12318). Description: SPR steady-state, His-captured receptor, 25 C.
Assay [8] has as its target His-tagged human FcγRIIB (human) (UniProt P31994). In words: SPR steady-state, His-captured receptor, 25 C.

By EC50 is commonly meant the concentration at which the effect is half-maximal. A word on the Kd: it is the equilibrium constant for the complex coming apart. A high value points to lower affinity.

Numbering of substitutions follows the chain as printed.

His-tagged cynomolgus FcγRIIIA (cynomolgus), sequence (Q8SPW2 17-208 limits assumed): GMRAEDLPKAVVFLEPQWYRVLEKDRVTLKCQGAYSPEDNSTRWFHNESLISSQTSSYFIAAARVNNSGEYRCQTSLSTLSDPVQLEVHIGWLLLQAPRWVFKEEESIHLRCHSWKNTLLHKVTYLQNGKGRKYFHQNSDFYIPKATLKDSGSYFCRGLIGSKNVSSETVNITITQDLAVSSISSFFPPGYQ
His-tagged human FcγRIIA (H131) (human), sequence (P12318 36-218 limits assumed): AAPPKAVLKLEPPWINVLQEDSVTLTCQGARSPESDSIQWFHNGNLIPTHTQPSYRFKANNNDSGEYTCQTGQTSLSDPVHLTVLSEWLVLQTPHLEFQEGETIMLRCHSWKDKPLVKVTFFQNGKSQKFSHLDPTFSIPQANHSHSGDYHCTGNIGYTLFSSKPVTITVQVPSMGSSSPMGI
His-tagged human FcγRIIB (human), sequence (P31994 46-217 limits assumed): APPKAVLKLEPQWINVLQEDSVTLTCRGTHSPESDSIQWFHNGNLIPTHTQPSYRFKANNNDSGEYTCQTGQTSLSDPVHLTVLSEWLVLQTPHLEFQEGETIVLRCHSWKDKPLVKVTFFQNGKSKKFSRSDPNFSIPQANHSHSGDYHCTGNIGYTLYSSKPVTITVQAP
His-tagged human FcγRIIA (R131) (human), sequence (P12318 36-218 H167R limits assumed): as the sequence (P12318 36-218 limits assumed) above, with H132R counted along it

B1: Antibody 1, sIgG4-anti-CD3_L2K (antibody, part only; not given: L2K light chain, part only)
heavy: DVQLVQSGAEVKKPGASVKVSCKASGYTFTRYTMHWVRQAPGQGLEWIGYINPSRGYTNYADSVKGRFTITTDKSTSTAYMELSSLRSEDTATYYCARYYDDHYCLDYWGQGTTVTVSSASTKGPSVFPLAPCSRSTSESTAALGCLVKDYFPEPVTVSWNSGALTSGVHTFPAVLQSSGLYSLSSVVTVPSSSLGTKTYTCNVDHKPSNTKVDKRVESKYGPPCPPCPAPPVAGPSVFLFPPKPKDTLMISRTPEVTCVVVDVSQEDPEVQFNWYVDGVEVHNAKTKPREEQFNSTYRVVSVLTVLHQDWLNGKEYKCKVSNKGLPSSIEKTISKAKGQPREPQVYTLPPSQEEMTKNQVSLTCLVKGFYPSDIAVEWESNGQPENNYKTTPPVLDSDGSFFLYSRLTVDKSRWQEGNVFSCSVMHEALHNHYTQKSLSLSLGK
In turn, B1 displayed a Geom. Mean:FITC-A in assay [1] of 1390. The molecule also gave a 50% effective concentration (EC50) in assay [2] of 33.5 nM.

B2: Antibody 4, anti-CD3 x anti-CD20 bispecific antibody with chimeric IgG4 constant regions (bispecific antibody, part only; not given: variable domains of both arms, not shown: another chain or arm of the molecule)
constant 1: ASTKGPSVFPLAPCSRSTSESTAALGCLVKDYFPEPVTVSWNSGALTSGVHTFPAVLQSSGLYSLSSVVTVPSSSLGTKTYTCNVDHKPSNTKVDKRVESKYGPPCPPCPAPPVAGPSVFLFPPKPKDTLMISRTPEVTCVVVDVSQEDPEVQFNWYVDGVEVHNAKTKPREEQFNSTYRVVSVLTVLHQDWLNGKEYKCKVSNKGLPSSIEKTISKAKGQPREPQVYTLPPSQEEMTKNQVSLTCLVKGFYPSDIAVEWESNGQPENNYKTTPPVLDSDGSFFLYSRLTVDKSRWQEGNVFSCSVMHEALHNHYTQKSLSLSLGK
constant 2: B2 constant 1 with H314R, Y315F
As for B2, the Kd in assay [3] was 23.1 µM; in assay [4], 13.9 µM; in assay [5] it was 66.3 µM; in assay [6], 12 µM; in assay [7] it was 19.3 µM; in assay [8] it was 123 µM.
